Results: PMC8533110

How the values were obtained:
Experiment in all cases: EMSA
Conditions in all cases: EMSA: 10 mM Tris-HCl pH 8.0, 60 mM NaCl, 10 mM KCl, 5 mM MgCl2, 1 mM DTT, 0.05% NP40, 10% glycerol, footprint: 5 mM Tris-HCl pH 8.0, 60 mM NaCl, 5 mM KCl
[1] = biological target: T1, HspR (Campylobacter jejuni NCTC 11168) (UniProt Q0P926)
T1 sequence: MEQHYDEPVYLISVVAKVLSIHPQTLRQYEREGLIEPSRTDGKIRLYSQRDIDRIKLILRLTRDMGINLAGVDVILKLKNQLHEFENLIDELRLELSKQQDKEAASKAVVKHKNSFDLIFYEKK

[2] = biological target: T2, HrcA (Campylobacter jejuni NCTC 11168) (UniProt Q9PPG2)
T2 sequence: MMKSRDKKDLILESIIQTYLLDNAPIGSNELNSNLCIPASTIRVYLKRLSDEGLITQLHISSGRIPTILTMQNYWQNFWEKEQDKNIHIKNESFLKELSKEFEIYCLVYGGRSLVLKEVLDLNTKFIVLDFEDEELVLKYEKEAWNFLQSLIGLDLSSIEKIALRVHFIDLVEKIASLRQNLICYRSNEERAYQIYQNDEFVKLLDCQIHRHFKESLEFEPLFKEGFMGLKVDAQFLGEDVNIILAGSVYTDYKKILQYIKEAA

[3] = biological target: T3, HrcA;HspR (Campylobacter jejuni NCTC 11168;Campylobacter jejuni NCTC 11168) (UniProt Q9PPG2+Q0P926)
T3 sequence 1: T2 sequence
T3 sequence 2: T1 sequence

“GGATCCCTTGCAGCAAATAAAGCACTTGCTAAACTTAATGATAAAAAAATCTTTTTCATTTCATTTCCTTTTGTTCTTAAAGATAAATTATCTCGTAAAATATTTTACTGTCTTCATAGTATAAAACCGAAAATTTACAAAATTGTAAATAAAACCTTGAGTGATAAAAATTTATAAAACTTGATTGACTTAGGCTAAAGTTTATGTTATAATTTAATCCTCTATATAATCAAGTAAAAATTTTTAAGGAAATATAACATGAATAGTTTATACGAAACTCTTGGAGTTAGCCTCGAG (double strand) [Pcbp promoter probe (EMSA)]” was tested, and the binding [1] was “binds”.
In the case of “GGATCCGCACAACAACAAAAGCTACAATGCCATAAAAAATCTTTTTCATTTTTATCCTTTAGTTTATTTTATAAAATAACTTTAGTCTATAAAACTAAACTTTTATAAATATTTTAATTTAAAGTATTGACAAAATTCATTTTTTATAGTATGATATTATCACTCTAAATTAAAGAGTGCTAAAATCAATATTTTTAAGGATGGACAAAAATGAATTTTCAACCTTTAGGAAAGCGTGTTCTAGTTAAACGCGCTCGAG (double strand) [Pgro promoter probe (EMSA)]”, the binding [2] is reported as “binds”, the binding [3] is reported as “binds” and the binding [1] is reported as “binds”.
